These results are taken from the supplement of paper PMC12042874.

± gives the uncertainty stated by the source.

The nature of the data set: amyloid nucleation score (Sup35N fusion, yeast selection) (log enrichment); library NNK3; higher = more nucleation; inactive = no reads after selection. Summed up:
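Yeast lacking psi expressed peptides of 20 random codons fused to Sup35N, received 100 μM copper sulfate for 24 hours, and were then grown for 7 days at 30°C on medium lacking adenine and uracil. Illumina sequencing of input and output plasmid inserts provided the reads. Nucleation scores are DiMSum log enrichments of output over input, centred on the mode of non-aggregating sequences. Any sequence with under 100 input reads was excluded.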
Turning to GNVILCFMLNYSMISGNDM, the amyloid nucleation score was determined as 0.956 ± 0.17.

Regarding NWLDWLGRPPRDIGAWNGSS, the amyloid nucleation score result is “inactive”.

As for LDLFVV, the amyloid nucleation score result is “inactive”.

On to GCIKGVICLTHC, for which the amyloid nucleation score result was “inactive”.

Turning to SKGLCPVWIVLYKACHSMIF, the amyloid nucleation score entry is “inactive”.

AEIVCICV showed an amyloid nucleation score of 1.11 ± 0.17.

On to TDTTSIMNWEDRPISSLKVD, for which the amyloid nucleation score result is “inactive”.

The substance PPRSSLFTFNIFKYNNLYNA had an amyloid nucleation score of 2.72 ± 0.066.

Substance FVWMLRWMGRDD gave an amyloid nucleation score of 0.816 ± 0.24.

Turning to WNHLDERANELCCN, the amyloid nucleation score result is “inactive”.

TGARMVLCIFGIYSMYTLHN displayed an amyloid nucleation score of 1.99 ± 0.074.

In turn, YRRAREWGNDDFLNG came in with an amyloid nucleation score of 0.785 ± 0.12.

As to PSCMSDCISIIYS, the amyloid nucleation score entry is “inactive”.

Consider DQGHRNYINSPRNFLSDKSC, for which the amyloid nucleation score entry is “inactive”.

As for NRCTCAV, the amyloid nucleation score entry is “inactive”.

With RSRET, the amyloid nucleation score entry was “inactive”.

For the substance VAQFDRNLKPKVNYAVNELQ, the amyloid nucleation score entry is “inactive”.

For LFVIVMSFLFGWFFYRNNYA, the amyloid nucleation score stood at 1.84 ± 0.099.

Consider TCRITP, for which the amyloid nucleation score result was “inactive”.

YGEEEVE: the amyloid nucleation score entry was “inactive”.

For the substance WGFVW, the amyloid nucleation score entry is “inactive”.

For SPFLCLLLDNEGKVLKVSYK, the amyloid nucleation score result was “inactive”.

Consider HKWLV, for which the amyloid nucleation score result is “inactive”.

Regarding WMRVSCDTRGYSSFQAY, the amyloid nucleation score was -0.538 ± 0.75.

Consider TSGAANHYLYSSVSWTFFLL, for which the amyloid nucleation score turned out to be 0.764 ± 0.19.

FKTCLGPQSTLVKGEVESHT: the amyloid nucleation score entry was “inactive”.

Turning to KGSHFFAIFGW, the amyloid nucleation score entry was “inactive”.

In turn, CFLAENILFSN displayed an amyloid nucleation score of 0.024 ± 0.64.

As to IAMWDAMCFYWKIMSGSIMV, the amyloid nucleation score result is “inactive”.

For the substance ATGYGL, the amyloid nucleation score entry was “inactive”.

On to ADPDVR, for which the amyloid nucleation score result was “inactive”.

With RVFYCNL, the amyloid nucleation score came out at 1.6 ± 0.059.

Consider IYSRVSRLIH, for which the amyloid nucleation score entry was “inactive”.

Take PLNMSRCTLALTLFVISFGW: the amyloid nucleation score result is “inactive”.

As to RYTGLMTKLASYYNKISICN, the amyloid nucleation score result was “inactive”.

With MGYPTISFCFNVYAFSVRIV, the amyloid nucleation score was determined as 0.697 ± 0.2.

In the case of CRCKC, the amyloid nucleation score result was “inactive”.

Turning to NAFDFSL, the amyloid nucleation score result was “inactive”.

Take IKFRDVEGKTLVQKCSQIF: the amyloid nucleation score entry was “inactive”.

With LFFMIVFSLYEFVMCFSSTR, the amyloid nucleation score result was “inactive”.

Regarding DRVITSNFFSSVWTQT, the amyloid nucleation score entry was “inactive”.

As to IYYSRHEYSDCV, the amyloid nucleation score result is “inactive”.

Regarding CFAFGW, the amyloid nucleation score result was “inactive”.

In the case of MVRSRLSASRRSICGPIISA, the amyloid nucleation score entry is “inactive”.

For the substance YCMYMCFSVMAGGGIVTMLW, the amyloid nucleation score entry was “inactive”.

As for TWSWVVAASVKLISFKL, the amyloid nucleation score entry is “inactive”.

In the case of WFYVDLFCGWTRDVNAASCL, the amyloid nucleation score entry was “inactive”.

The substance EFNNFYFCFFTV showed an amyloid nucleation score of 2.71 ± 0.064.

With WLWDVDDYGNPLWVRHASVA, the amyloid nucleation score entry was “inactive”.

SKCVGFIMNFLISSDNEDSN registered an amyloid nucleation score of 2.27 ± 0.053.

As for GSLIMSLAR, the amyloid nucleation score entry is “inactive”.

With SLMDVN, the amyloid nucleation score result was “inactive”.

In turn, NGVCTVNVTFCYMV had an amyloid nucleation score of 2.23 ± 0.058.

In the case of LLRVSYFIVLRTLN, the amyloid nucleation score result is “inactive”.

Take CCLFMLFMRMRTHL: the amyloid nucleation score entry was “inactive”.

RNKVKQTE: the amyloid nucleation score entry is “inactive”.

Take HMFRVVPSLIRI: the amyloid nucleation score entry is “inactive”.

As for WYSNLMCTWISDDKTWQRIR, the amyloid nucleation score result is “inactive”.

As for DSLKIR, the amyloid nucleation score entry was “inactive”.

As for GKSIYCWFWVKMQEAERLMS, the amyloid nucleation score entry was “inactive”.

Consider YRDFSEGSFPLIRVLMGMVG, for which the amyloid nucleation score entry is “inactive”.

With YCGYNR, the amyloid nucleation score entry is “inactive”.

For the substance LSIIRKVADRGDPSDLYKMV, the amyloid nucleation score entry was “inactive”.

On to RFSWWRW, for which the amyloid nucleation score stood at 1.24 ± 0.14.

Take IATIVCYRLDGYHVLSYAHT: the amyloid nucleation score result was “inactive”.

Turning to WNKGPQTQ, the amyloid nucleation score entry is “inactive”.

Take YVSKVYLDH: the amyloid nucleation score result was “inactive”.

With CMSPYWML, the amyloid nucleation score result was “inactive”.

Consider WSDHMMRALERLPECINKLL, for which the amyloid nucleation score entry is “inactive”.

In the case of PVKLC, the amyloid nucleation score entry is “inactive”.

For FCFSGRMTYHFTTWFIKRRS, the amyloid nucleation score entry is “inactive”.

On to MNWFELFAHCLLKQFQRTLQ, for which the amyloid nucleation score result is “inactive”.

As to VNFVSFRP, the amyloid nucleation score entry is “inactive”.

On to SITSFDFLINRVSMPSYNCG, for which the amyloid nucleation score result is “inactive”.

In turn, RCWILISANHQKDFVSHIFY yielded an amyloid nucleation score of 0.627 ± 0.36.

Substance AGSIGPVRSRGIMLTRLEV had an amyloid nucleation score of -0.42 ± 1.8.

Consider KYWICVFFVMIRDPIAYWDD, for which the amyloid nucleation score result is “inactive”.

As to MLLFHLVVQLNDLLSAPLRA, the amyloid nucleation score entry was “inactive”.

As to MGNFSFE, the amyloid nucleation score entry was “inactive”.

With LFGTFYPFSTTRFNVVKPDG, the amyloid nucleation score entry is “inactive”.

As for IRSSREFYMSVYRTEAWVLE, the amyloid nucleation score result is “inactive”.

As to LIYILWH, the amyloid nucleation score result is “inactive”.

As for SVKNWPNVN, the amyloid nucleation score result is “inactive”.

Substance SRWPGHNYISQYGGYLLIFY registered an amyloid nucleation score of 2.02 ± 0.071.

On to GRNRHTYDRLYCPFVRSLIV, for which the amyloid nucleation score result is “inactive”.

Consider VLTLIFFYFRISCICPFLL, for which the amyloid nucleation score result was “inactive”.

Regarding MRVYFMWATTWLA, the amyloid nucleation score entry was “inactive”.

For YSMRRTDIHPVVFRQ, the amyloid nucleation score entry was “inactive”.

With MVCISL, the amyloid nucleation score entry is “inactive”.

RFCAFERG: the amyloid nucleation score result was “inactive”.

Regarding GDVNCLNTVTLKNNKTRGHI, the amyloid nucleation score entry is “inactive”.

For the substance IRLVMETLGNLGIADKSMRV, the amyloid nucleation score entry was “inactive”.

Take PVGKMDLRIDKNSWSYLVLD: the amyloid nucleation score entry is “inactive”.

MWFPSVLWTIISQSYEMQKL displayed an amyloid nucleation score of 0.783 ± 0.12.

Substance GLVSVLSDEMYCFWQYSCYS yielded an amyloid nucleation score of 1.91 ± 0.091.

Consider LWINCSWMFNWM, for which the amyloid nucleation score was found to be 2.43 ± 0.07.

As to ACLYY, the amyloid nucleation score entry was “inactive”.

With KLILFLTRVFRSFQVSWRQF, the amyloid nucleation score result was “inactive”.

For HYADRTAWPSACASLYSHAL, the amyloid nucleation score result was “inactive”.

On to VNTATCYQ, for which the amyloid nucleation score result was “inactive”.

As for RITIMFGSLINDLHFCNA, the amyloid nucleation score is 2.87 ± 0.052.

As to SEIVSKVITLQGNICFFGMG, the amyloid nucleation score result was “inactive”.

Substance ASIPGQRYSEPVKPGTCMYV gave an amyloid nucleation score of 1.3 ± 0.14.

The substance TFIFDFAAFMNMVNGFSVLG had an amyloid nucleation score of 2.23 ± 0.088.

In turn, NRENFMVTLLSLWTCNTCQV came in with an amyloid nucleation score of 2.46 ± 0.054.

Take TSPNYTGPMNSCLRAWLWDR: the amyloid nucleation score result was “inactive”.

For the substance YVCGKF, the amyloid nucleation score entry is “inactive”.

AVLSLCINGIVALKGDSGCC had an amyloid nucleation score of 0.478 ± 0.21.

Regarding HEIPETQFCSIWFDSVCWCL, the amyloid nucleation score result is “inactive”.

On to DRLPGANICKRRFDMCERKV, for which the amyloid nucleation score entry is “inactive”.

For the substance YVGLDVVPGVLGIGFILLYD, the amyloid nucleation score entry is “inactive”.

With CISFPDDWRSHTI, the amyloid nucleation score entry is “inactive”.

For the substance VFTWILSDSHTSMWFRCQGG, the amyloid nucleation score entry was “inactive”.

Consider IVNFACCVWSLYSSREFNML, for which the amyloid nucleation score turned out to be 3.22 ± 0.07.

In the case of RLHRLKDFTRNGCEYSSHLS, the amyloid nucleation score result is “inactive”.

As to LSSVKCSKWSIFMYMRQYIW, the amyloid nucleation score result is “inactive”.

Take FNVANIRSRFFHFTYSRKVS: the amyloid nucleation score entry was “inactive”.

Turning to RCSDYHMR, the amyloid nucleation score entry was “inactive”.

For PKCPCTWSRTYCVVLWLPRR, the amyloid nucleation score entry is “inactive”.

Take GFHELRLH: the amyloid nucleation score result is “inactive”.

On to HYLAIYGVGCCNFYSYTAVC, for which the amyloid nucleation score came out at 1.28 ± 0.085.

Regarding FLCMMTVVYQFVWMMMQGAV, the amyloid nucleation score result was “inactive”.

Turning to FYFMPNFV, the amyloid nucleation score result was “inactive”.

Take TQGYVFKELAGVSRYTEA: the amyloid nucleation score entry was “inactive”.

For HFHSVIELVYG, the amyloid nucleation score result is “inactive”.

In the case of FGNFPSCE, the amyloid nucleation score result was “inactive”.

As to PGTIYVGCRLLIYGTNTADL, the amyloid nucleation score result was “inactive”.

IVVLWV returned an amyloid nucleation score of -0.341 ± 0.39.

Turning to LRGITLSMQGCTDWFVMYLC, the amyloid nucleation score result was “inactive”.

With MYTLCQMLNVRTRDMTCVTR, the amyloid nucleation score result is “inactive”.

On to FITFHENDAVELEG, for which the amyloid nucleation score result was “inactive”.

PFCVCRLL: the amyloid nucleation score entry is “inactive”.

With CVFRWMLFSASEYDGRILKW, the amyloid nucleation score result is “inactive”.

In the case of VRISMRDMVWSRFWLPVVLK, the amyloid nucleation score result was “inactive”.

Take INLGLPVWSSIIFFNQSHNL: the amyloid nucleation score was 0.679 ± 0.14.

For the substance LFLISG, the amyloid nucleation score entry is “inactive”.
